According to US20230203435A1 (SYSMEX, published 2023):
Changes are numbered by the printed parent chain.

Columns and labels:
[1] = molecular target: T1, animal free recombinant human IL-6 (PeproTech Inc.) (human, UniProt P05231 30-212); assay: ELISA, antigen coated at 5 ug/mL, HRP anti-human IgG Fc detection
T1 construct: Bought reagent, coated on the ELISA plate; also called interleukin-6
Experimental: (§1) The affinity of each antibody for an antigen was measured by ELISA method. As antigens of each antibody, human CD20/MS4A1 full-length protein, His tag (HEK293) (ACROBiosystems Inc.), recombinant human ErbB2/Her2 Fc chimera (R&D Systems Inc.), chicken egg white-derived lysozyme (Sigma-Aldrich), animal free recombinant human IL-6 (PeproTech Inc.) and interleukin 8 (CXCL8) (Shenandoah Biotechnology, Inc.) were used. Specific operations are as follows. A solution of various antigens diluted to 5 μg/mL with PBS was added to each well of a 96-well plate (Nunc), and the plate was incubated at 4° C. overnight. After removing the solution from each well, 1% BSA/PBS was added, and the plate was incubated at room temperature for 3 hours. The solution was removed from each well, and then the plate washed three times with PBST. An antibody solution was added to each well, and the plate was incubated at room temperature for 15 minutes. The solution was removed from each well, and then the plate washed three times with PBST. A solution of HRP-labeled anti-human IgG Fc antibody (Bethyl Laboratories, Inc.), HRP-labeled goat F(ab′)2 fragment anti-mouse IgG (H+L) (Beckman Coulter, Inc.) or HRP-conjugated streptavidin (Thermo Fisher Scientific Inc.) diluted to 0.3 μg/mL with 1% BSA/PBS was added to each well, and the plate was incubated at room temperature for 1 hour. The solution was removed from each well, and then the plate washed three times with PBST. Chromogenic reaction was performed using KPL TMB (registered trademark) Peroxidase Substrate (SeraCare Life Sciences, Inc.) and the chromogenic reaction was stopped using KPL TMB (registered trademark) Peroxidase Stop Solution (SeraCare Life Sciences, Inc.). Absorbance at 450 nm was measured using a SpectraMax (registered trademark) 190 microplate reader (Molecular Devices, LLC).

[2] = molecular target: T2, human CD20/MS4A1 full-length protein, His tag (HEK293) (ACROBiosystems Inc.) (human, UniProt P11836 1-297); assay: as above
T2 construct: mature; Bought reagent, coated on the ELISA plate; also called antigen of rituximab; not shown: His tag
T2 sequence (looked up): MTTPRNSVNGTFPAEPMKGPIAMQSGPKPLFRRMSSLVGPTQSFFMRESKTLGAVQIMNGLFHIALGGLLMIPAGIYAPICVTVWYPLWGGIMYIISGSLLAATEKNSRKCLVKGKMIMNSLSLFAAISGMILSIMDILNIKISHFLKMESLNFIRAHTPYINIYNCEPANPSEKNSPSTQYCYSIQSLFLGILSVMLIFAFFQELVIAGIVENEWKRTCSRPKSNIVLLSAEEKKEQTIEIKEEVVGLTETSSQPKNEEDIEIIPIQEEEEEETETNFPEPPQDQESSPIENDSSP
Experimental: as §1

[3] = molecular target: T3, interleukin 8 (CXCL8) (Shenandoah Biotechnology, Inc.) (UniProt P10145 28-99, limits assumed); assay: as above
T3 construct: Bought reagent, coated on the ELISA plate; also called IL-8
T3 sequence (looked up): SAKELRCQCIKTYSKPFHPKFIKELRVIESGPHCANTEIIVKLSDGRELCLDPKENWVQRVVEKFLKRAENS
Experimental: as §1

[4] = molecular target: T4, recombinant human ErbB2/Her2 Fc chimera (R&D Systems Inc.) (human, UniProt P04626 23-652); assay: ELISA, antigen coated at 5 ug/mL, biotin-labeled antibody, HRP-streptavidin
T4 construct: Bought reagent, coated on the ELISA plate; also called antigen of trastuzumab; Fc part of the bought chimera not given
Experimental: as §1

B1: anti-IL-6 antibody (mouse/human chimeric antibody), light chain FR3 not substituted (antibody, human IgG1, kappa, V domains shown)
VH: EVQLQQSGPELVKPGASVKMSCKASGYTFTSYVMHWVKQKPGQGLEWIGYINPYNDGTKYNEKFKGKATLTSDKSSSTAYMELSSLTSEDSAVYYCAREGYGNLERDCWGQGTSVTVSS
VL: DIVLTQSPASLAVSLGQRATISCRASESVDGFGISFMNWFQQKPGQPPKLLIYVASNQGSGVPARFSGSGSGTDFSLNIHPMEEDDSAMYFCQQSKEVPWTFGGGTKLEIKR
notes: also called WT; anti-interleukin (IL)-6 antibody
B1 was tested, and the EC50 [1] was 0.041 µg/mL and the EC50 ratio [1] was 1 ratio (EC50 in WT taken as 1.0).

B2: R5 variant of anti-IL-6 antibody (antibody, human IgG1, kappa, V domains shown)
VH: B1 VH
VL: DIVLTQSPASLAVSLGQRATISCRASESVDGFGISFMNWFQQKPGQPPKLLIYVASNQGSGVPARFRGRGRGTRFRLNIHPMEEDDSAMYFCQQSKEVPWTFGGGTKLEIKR
notes: IgG; Light chain positions 63, 65, 67, 70 and 72 (Chothia) are arginine; also called anti-IL-6 antibody R5
For B2, the EC50 [1] was 0.0327 µg/mL and the EC50 ratio [1] was 1.3 ratio (EC50 in WT taken as 1.0).

B3: R3 variant of rituximab (antibody, human IgG1, kappa, V domains shown)
VH: QVQLQQPGAELVKPGASVKMSCKASGYTFTSYNMHWVKQTPGRGLEWIGAIYPGNGDTSYNQKFKGKATLTADKSSSTAYMQLSSLTSEDSAVYYCARSTYYGGDWYFNVWGAGTTVTVSA
VL: QIVLSQSPAILSASPGEKVTMTCRASSSVSYIHWFQQKPGSSPKPWIYATSNLASGVPVRFRGRGRGTSYSLTISRVEAEDAATYYCQQWTSNPPTFGGGTKLEIKR
notes: IgG; Light chain positions 63, 65 and 67 (Chothia) are arginine; Heavy chain is that of rituximab; also called rituximab R3
For B3, the EC50 [2] was 1.71 µg/mL and the EC50 ratio [2] was 74.6 ratio (EC50 in WT taken as 1.0).

B4: rituximab (mouse/human chimeric antibody), light chain FR3 not substituted (antibody, human IgG1, kappa, V domains shown)
VH: B3 VH
VL: B3 VL with R62S, R64S, R66S
notes: also called WT; rituximab WT
B4 gave an EC50 [2] of 127 µg/mL.

B5: R5 variant of rituximab (antibody, human IgG1, kappa, V domains shown)
VH: B3 VH
VL: B3 VL with S69R, S71R
notes: IgG; Light chain positions 63, 65, 67, 70 and 72 (Chothia) are arginine; also called rituximab R5
With B5 the EC50 [2] was 0.027 µg/mL and the EC50 ratio [2] was 4710 ratio (EC50 in WT taken as 1.0).

B6: R3 variant of anti-IL-8 antibody (antibody, human IgG1, kappa, V domains shown)
VH: EVKLVESGGGLVKPGGSLKLSCAASGFTFNNYAMSWVRQTPEKRLEWVASISSGGNTYYPDSVKGRFTLSRDNARNILYLQMSRLRSEDTAMYYCARDKLRLPNWYFDVWGAGTTVTVSS
VL: DIVLTQSPPSLAVSLGQRATISCKASQSVDYDGDSYMNWYQQKPGQPPKVLIYGASNLESGIPARFRGRGRGTDFTLNIYPVEEEDAATYYCQQSNEDPPTFGGGTKLEIKR
notes: IgG; Light chain positions 63, 65 and 67 (Chothia) are arginine; also called anti-IL-8 antibody R3
In the case of B6, the EC50 [3] is reported as 0.269 µg/mL and the EC50 ratio [3] is reported as 1.4 ratio (EC50 in WT taken as 1.0).

B7: R4 variant of anti-IL-8 antibody (antibody, human IgG1, kappa, V domains shown)
VH: B6 VH
VL: B6 VL with D74R
notes: IgG; Light chain positions 63, 65, 67 and 70 (Chothia) are arginine; also called anti-IL-8 antibody R4
In the case of B7, the EC50 [3] is reported as 0.0598 µg/mL and the EC50 ratio [3] is reported as 6.5 ratio (EC50 in WT taken as 1.0).

B8: anti-IL-8 antibody (mouse/human chimeric antibody), light chain FR3 not substituted (antibody, human IgG1, kappa, V domains shown)
VH: B6 VH
VL: B6 VL with R67S, R69S, R71S
notes: also called WT; anti-IL-8 antibody WT
With B8 the EC50 [3] was 0.39 µg/mL and the EC50 ratio [3] was 1 ratio (EC50 in WT taken as 1.0).

B9: R3 variant of trastuzumab (antibody, human IgG1, kappa, V domains shown)
VH: not shown
VL: DIQMTQSPSSLSASVGDRVTITCRASQDVNTAVAWYQQKPGKAPKLLIYSASFLYSGVPSRFSGRRRGTRFTLTISSLQPEDFATYYCQQHYTTPPTFGQGTKVEIKR
notes: IgG; Light chain positions 65, 67 and 70 (Chothia) are arginine; Labeled with biotin (Biotin Labeling Kit-NH2) before the ELISA; also called trastuzumab R3
B9 was tested, and the EC50 [4] was 0.0252 µg/mL and the EC50 ratio [4] was 2 ratio (EC50 in WT taken as 1.0).

B10: R4 variant of trastuzumab (antibody, human IgG1, kappa, V domains shown)
VH: not shown
VL: B9 VL with S63R
notes: IgG; Light chain positions 63, 65, 67 and 70 (Chothia) are arginine; Labeled with biotin (Biotin Labeling Kit-NH2) before the ELISA; also called trastuzumab R4
In the case of B10, the EC50 [4] is reported as 0.0342 µg/mL and the EC50 ratio [4] is reported as 1.5 ratio (EC50 in WT taken as 1.0).
